Experimental data published in paper doi:10.1101/2020.12.21.423864.

Molecular target: Cadherin-11 extracellular domain 1 (Cad11-EC1), wild type, residues 1-98
Test: NMR

stoichiometry N: 2
Substance: Cadherin-11 extracellular domain 1 (Cad11-EC1), wild type, residues 1-98 (domain or fragment)
